According to publication PMC7585203 (Epigenetics & Chromatin, 2020):
Changes are numbered by the printed parent chain. Where no end group is shown, it is not given here.

How the values were obtained:
Test in all cases: fluorescence polarisation; FAM-labelled peptide with GST-tagged domains or MBP-tagged full-length UHRF1; as described in ref. 4, plotted as change in anisotropy
Details in all cases: both partners purified
[1] = molecular target: T1, GST-tagged UHRF1 TTD–PHD S298E ( (printed UniProt entry is …, UniProt Q96T88 125-364, S298E))
T1 construct: also called phospho-mimetic mutation in L2; source: recombinant GST fusion
T1 sequence (looked up): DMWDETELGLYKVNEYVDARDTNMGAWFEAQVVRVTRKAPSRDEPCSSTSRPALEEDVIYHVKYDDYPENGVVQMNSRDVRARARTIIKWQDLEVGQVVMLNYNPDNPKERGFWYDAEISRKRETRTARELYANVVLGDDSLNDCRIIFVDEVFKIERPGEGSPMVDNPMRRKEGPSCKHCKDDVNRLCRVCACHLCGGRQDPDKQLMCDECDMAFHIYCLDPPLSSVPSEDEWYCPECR

[2] = molecular target: T2, GST-tagged UHRF1 tandem Tudor domain (TTD, a.a. 125–285) ( (printed UniProt entry is …, UniProt Q96T88 125-285))
T2 construct: also called UHRF1 TTD; source: recombinant GST fusion
T2 sequence (looked up): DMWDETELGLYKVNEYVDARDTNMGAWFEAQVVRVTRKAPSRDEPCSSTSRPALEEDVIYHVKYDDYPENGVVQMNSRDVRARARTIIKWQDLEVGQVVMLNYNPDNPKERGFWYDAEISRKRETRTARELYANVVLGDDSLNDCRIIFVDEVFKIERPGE

[3] = molecular target: T3, GST-tagged UHRF1 TTD–PHD R295A/R296A ( (printed UniProt entry is …, UniProt Q96T88 125-364, R295A | R296A))
T3 construct: also called mutation of L2 (R295A/R296A); TTD–PHD mutant; source: recombinant GST fusion
T3 sequence (looked up): T1 sequence (looked up) with R171A, R172A, E174S

[4] = molecular target: T4, UHRF1 full-length (a.a. 1–793), MBP fusion ( (printed UniProt entry is …, UniProt Q96T88 1-793))
T4 construct: also called recombinant full-length UHRF1; full-length UHRF1; not shown: MBP, N-terminal, kept
T4 sequence (looked up): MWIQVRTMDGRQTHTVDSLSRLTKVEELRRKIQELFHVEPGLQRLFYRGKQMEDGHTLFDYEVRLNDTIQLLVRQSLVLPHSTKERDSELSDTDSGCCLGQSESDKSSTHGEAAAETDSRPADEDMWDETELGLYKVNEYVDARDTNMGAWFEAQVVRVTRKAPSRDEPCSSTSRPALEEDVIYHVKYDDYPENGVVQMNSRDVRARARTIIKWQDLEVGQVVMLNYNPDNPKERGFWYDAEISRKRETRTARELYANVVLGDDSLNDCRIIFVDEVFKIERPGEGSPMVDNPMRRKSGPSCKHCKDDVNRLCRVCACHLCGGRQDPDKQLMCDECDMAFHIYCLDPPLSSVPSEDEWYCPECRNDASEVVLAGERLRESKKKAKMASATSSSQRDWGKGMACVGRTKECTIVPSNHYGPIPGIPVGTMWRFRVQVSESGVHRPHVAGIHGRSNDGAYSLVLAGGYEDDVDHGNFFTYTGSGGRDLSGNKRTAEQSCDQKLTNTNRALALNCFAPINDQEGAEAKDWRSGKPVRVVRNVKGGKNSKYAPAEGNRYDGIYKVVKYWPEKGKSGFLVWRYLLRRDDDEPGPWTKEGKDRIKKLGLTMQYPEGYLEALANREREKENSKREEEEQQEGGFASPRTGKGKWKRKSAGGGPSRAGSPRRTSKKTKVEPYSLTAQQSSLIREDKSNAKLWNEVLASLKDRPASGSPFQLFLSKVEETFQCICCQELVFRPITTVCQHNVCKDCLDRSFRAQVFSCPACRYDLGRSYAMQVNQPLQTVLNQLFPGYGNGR

- binding result [1]: binds
- Kd [2]: 30 to 80 nM
- binding result [3]: binds
- Kd [4]: 41 nM
B1: FAM-LIG1(118–130)K126me2 peptide (peptide)
peptide: {FAM}-IPKRRTARK(Me2)QLPK
modifications: not fully specified (C-terminus); printed as FAM-LIG1(118–130)K126me2 peptide
notes: DNA ligase 1 (LIG1), residues 118-130; also called FAM-LIG1K126me2; LIG1K126me2 peptide; source: bought: GenScript (synthetic peptide)
